Results taken from US20120207760A1 (THERACLONE SCIENCES, published 2012).

B1: TCN-031 Fab fragment (Fab, V domains shown)
VH: EVQLVESGGGLVQPGGSLRISCAASGFTVSSNYMSWVRQAPGKGLEWVSVIYSGGSTYYADSVKGRFSFSRDNSKNTVFLQMNSLRAEDTAVYYCARCLSRMRGYGLDVWGQGTTVTVS
VL: DIQMTQSPSSLSASVGDRVTITCRTSQSISSYLNWYQQKPGKAPKLLIYAASSLQSGVPSRFSGSGSGTDFTLTISGLQPEDFATYYCQQSYSMPAFGQGTKLEIK
B2: TCN-032 Fab fragment (Fab, V domains shown)
VH: QVQLQESGPGLVKPSETLSLTCTVSGSSISNYYWSWIRQSPGKGLEWIGFIYYGGNTKYNPSLKSRVTISQDTSKSQVSLTMSSVTAAESAVYFCARASCSGGYCILDYWGQGTLVTVS
VL: DIQMTQSPSSLSASVGDRVTITCRASQNIYKYLNWYQQRPGKAPKGLISAASGLQSGVPSRFSGSGSGTDFTLTITSLQPEDFATYYCQQSYSPPLTFGGGTRVEIK
B3: TCN-553 (5261_C18) (antibody, V domains shown)
VH: QVQVVQSGTEVKKPGSSVKVSCQTSGGRFMSYAITWVRQAPGQGLEWMGGIVPVFGTANYAQKFQGRVTITTDDSTRTAYMELSSLRSEDTAVYYCGFRYGSGYGFDSWGQGTLVTVSS
VL: EIVLTQSPGTLSLSPGERATLSCRASQSVSSSYLAWYQKKPGQAPRLLIYGASTRATGIPDRFTGSGSGTDFTLSISRLEPEDFAVYYCQHFGTSVFTFGGGTKVEIK
B4: TCN-557 (5081_A04) (antibody, V domains shown)
VH: QVQLVQSGAEVKKPGASVKVSCKASGHTFTGYYIHWVRQAPGQGLEWMGWINPDSGATSSAQNFQGRVTMTGDTSSSTAYMELSRLSFDDTAVYYCARVLFTSPFDFWGEGTLVTVSS
VL: QAVVTQEPSLAVSPGGTVTLTCGSSTGAVTRGHYPYWFQQKPGQAPRALIYDSAGNRHSWTPARFSGSLLGGKAALTLSGAQPEDEAEYYCLLSYSGVWVFGGGTKLTVL
B5: TCN-556 (5089_K12) (antibody, V domains shown)
VH: QVQLVQSGAEVKKPGASVKVSCKASGYTFIGYDMHWVRQAPGQGLEWMGWINAKRGGTNYAQKFQGRVTMTRDTSISTAYMELNSLRSDDTAVYYCARGVGSRTTIFGVLNPEFDYWGQGTLVTVSS
VL: QSALTQPPSASGSPGQSVTISCTGSSSDVGGYDYVSWYQQHPGKAPKLLIYEVTKRPSGVPDRFSGSKSGNTASLTVSGLQAEDEADYYCSSYAGNYNHVFGPGTKVTVL
B6: TCN-550 (5096_F06) (antibody, V domains shown)
VH: QVQLQESGPGLVKPSETLSLTCTVSGASINSHYWSWIRQPPGKGLEWIGYVYYSGSTTYNPSLKSRVTLSVDTSKNQFSLNLSSVTAADTAFYYCARHPYDVLTGSGDWFDPWGQGTLVTVSS
VL: SYVLTQAPSVSVAPGQTARITCGGNAIGSKKVHWYQHKAGQAPVLVVYDDTDRPSGIPERFSGSNSWSTATLTINRVEAGDEADYYCQVWDFTIDHVVFGGGTKLTVL
B7: TCN-560 (5084_P10) (antibody, V domains shown)
VH: EVQLVESGGGLVQPGGSLRLSCAASGFIFRNYWMSWVRQAPGKGLEWVANIKQDGREKYYVDSLRGRVNISRDNAENSLYLHMNSLRVEDTAVYFCARARMVVVTGDGFDVWGHGTMVTVSS
VL: DIQMTQSPSSLSASVGDRVTITCRASQNIKRYFNWYQQKPGKAPKLLIYAASNLENGVPSRFSGSGSGTDFTLTISSLQPEDFATYYCQQSFSKSWTFGQGTNVDIK
B8: TCN-555 (5246_L16) (antibody, V domains shown)
VH: QVQLVQSGAEVKRPGSSVKVSCTASGGIFRKNAISWVRQAPGQGLEWMGGIIAVFNTANYAQKFQNRVKITADESGNTAYMELSSLTSDDTAVYYCASHPKYFYGSGSYPDFWGQGTLVTVSS
VL: QSALTQPRSVSGSPGQSITISCTGGSSDIGASNSVSWYQQHPGKAPKLVIFDVTERPSGVPHRFSGSKSGNTASLTVSGLQPDDEADYFCCAYGGKYLVVFGGGTKVTVL
B9: TCN-549 (5092_P04) (antibody, V domains shown)
VH: QVQLVQSGAEVKKPGASVKVSCKASGYTFTGYYMHWVRQAPGQGLEWMGWINPNSGDTNYAQKFQGRVTMTRDTSITTAYMELSSLRSDDTAVYYCARDSPYSSSWSFFDYWGQGPLVTVSS
VL: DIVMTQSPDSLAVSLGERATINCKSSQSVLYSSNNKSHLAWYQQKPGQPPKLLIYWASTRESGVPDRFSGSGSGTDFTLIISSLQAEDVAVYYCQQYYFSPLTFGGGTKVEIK
B10: TCN-552 (5249_I23) (antibody, V domains shown)
VH: QVQVVQSGAEVKKPGSSVRVSCQASGGTFMNYAIIWVRRAPGQGLEWMGGIIPVFPTPNYAQMFQGRVTISTDESRSTSFLELTNLRYEDTAVYYCARRIYHGGNSGFDFWGQGTLVTVSS
VL: EIVLTQSPATLSLSPGERATLSCRASQSVGNYLAWYQQKPGQAPRLLIYDSSNRAPGIPARFSGSGSGTDFTLTISSLAPEDFAVYYCQQRSKWPPMYSFGHGTKLEIK

Each binder was assayed against M2 protein of influenza A/Puerto Rico/8/34 (H1N1), on inactivated virus (Influenza A virus A/Puerto Rico/8/34 …, UniProt P06821 1-97) (assay: surface plasmon resonance, Fab fragment on influenza virus).
Chain of M2 protein of influenza A/Puerto Rico/8/34 (H1N1), on inactivated virus (P06821 whole entry, the tested form may be a part): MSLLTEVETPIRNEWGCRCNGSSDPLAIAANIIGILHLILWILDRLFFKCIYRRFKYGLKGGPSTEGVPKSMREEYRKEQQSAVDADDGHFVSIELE
B1 showed a Kd of 14 nM, a koff of 0.014 s⁻¹ and a kon of 1e+06 M⁻¹ s⁻¹.
For B2, the Kd was 3.2 nM, the koff was 0.0023 s⁻¹ and the kon was 740000 M⁻¹ s⁻¹.

What follows are binders tested against Hemagglutinin of influenza A/Japan/305/57 (H2N2), on inactivated whole virions (Influenza A virus A/Japan/305/1957 …, UniProt P03451 16-562) (assay: ELISA, B cell culture supernatant on inactivated whole virions).
With B3 the OD450 was 2.54 OD450.
Binder B4 has an OD450 of 2.7 OD450.
B5 showed an OD450 of 2.41 OD450.
Work on B6 yielded an OD450 of 0.06 OD450.
With B7 the OD450 was 2.07 OD450.
Work on B8 yielded an OD450 of 0.6 OD450.
B9 was tested, and the OD450 was 0.08 OD450.
B10 gave an OD450 of 0.71 OD450.
